These results are taken from patent publication CN112851815A (XIAN YUFAN BIOTECHNOLOGIES CO LTD, dated 2021).

By EC50 is commonly meant the concentration at which the effect is half-maximal. A lower EC50 goes with an effect from little substance.

The target in experiment [1] is T1, BSA蛋白 (BSA, control protein) (UniProt P02769 25-607).
T1 construct: Control protein coated at 2 μg/mL; also called 对照蛋白
Kind of experiment: ELISA, BSA coated at 2 μg/mL, serially diluted scFv, detection by anti-HA and HRP goat anti-mouse IgG.

Experiment [2] concerns the target T2, BCMA蛋白 (BCMA protein, B cell maturation antigen) (human, UniProt Q02223 1-54).
T2 construct: extracellular domain; also called 抗原BCMA; CD269
T2 sequence (looked up): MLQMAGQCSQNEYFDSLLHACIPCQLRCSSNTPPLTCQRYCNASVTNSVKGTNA
Put plainly: ELISA, BCMA coated at 2 μg/mL, serially diluted scFv, detection by mouse anti-HA and HRP goat anti-mouse IgG, OD450. Background: ELISA stands for enzyme-linked immunosorbent assay.

T1 sequence (P02769 25-607 limits assumed): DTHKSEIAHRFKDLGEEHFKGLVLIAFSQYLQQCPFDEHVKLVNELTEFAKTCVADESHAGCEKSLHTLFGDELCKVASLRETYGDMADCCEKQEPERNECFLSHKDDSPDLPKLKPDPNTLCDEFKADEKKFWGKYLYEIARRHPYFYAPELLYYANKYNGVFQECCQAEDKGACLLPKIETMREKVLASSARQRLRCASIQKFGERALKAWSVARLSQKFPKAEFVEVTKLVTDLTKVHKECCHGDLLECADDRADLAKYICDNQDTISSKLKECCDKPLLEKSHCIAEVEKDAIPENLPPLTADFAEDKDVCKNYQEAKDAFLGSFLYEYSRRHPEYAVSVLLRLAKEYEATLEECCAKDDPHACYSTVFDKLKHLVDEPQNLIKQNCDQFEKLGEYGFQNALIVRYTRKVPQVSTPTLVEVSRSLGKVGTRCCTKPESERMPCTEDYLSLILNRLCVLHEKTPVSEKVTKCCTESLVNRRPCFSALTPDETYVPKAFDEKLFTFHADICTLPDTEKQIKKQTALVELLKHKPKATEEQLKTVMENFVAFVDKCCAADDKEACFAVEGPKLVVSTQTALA

B1: 抗BCMA单链抗体B36 (anti-BCMA fully human scFv B36) (scFv)
scFv: QVQLVQSGAEVKKPGSSVKVSCKASGGTFSSYAISWVRQAPGQGLEWMGRIIPILGIANYAQKFQGRVTITADESTSTAYMELSSLRSDDTAVYYCARAGYDRSGYYFQHWGQGTLVTVSSGGGGSGGGGSGGGGSVLTQPPSVSGTPGQRVTISCSGSSSNIGSNIVNWYQQVPGTAPKLLIYSNNQRPSGVPGRFSGSKSGTSASLAIRGLQSDDEADYYCAAWDGGPRGHYVFGTGTKVSVL
notes: The purified protein carries C-terminal HA and 6xHis tags; also called 抗BCMA抗体; 抗人BCMA单链抗体; not shown: C-terminal 6xHis tag from vector pET-26b; junction residues between insert and t
For B1, in experiment [1], the binding result is given as “no binding”. In addition, the EC50 in experiment [2] amounted to 0.5 nM.
